Assays:
[1] = molecular target: HA of H7N9 A/Shanghai/1/13 (influenza A virus); experiment: cell-based or functional assay
[2] = molecular target: HA of H1N1 A/Mississippi/03/01 274H (influenza A virus); experiment: cell-based or functional assay
[3] = molecular target: HA of H7N7 A/Common Teal/MPF139/07 (influenza A virus); experiment: cell-based or functional assay
[4] = molecular target: HA of H11N9 A/Northern Pintail/MPC2085/07 (influenza A virus); experiment: cell-based or functional assay
[5] = molecular target: HA of H2N2 A/Guiyang/1/57 (influenza A virus); experiment: cell-based or functional assay
[6] = molecular target: HA of H5N2 A/Eurasian Wigeon/MPF461/07 (influenza A virus); experiment: cell-based or functional assay
[7] = molecular target: HA of H1N1 A/Puerto Rico/8/34-MA (influenza A virus); experiment: cell-based or functional assay
[8] = molecular target: HA of H4N6 A/Great Cormorant/MPB1683/06 (influenza A virus); experiment: cell-based or functional assay
[9] = molecular target: HA of H3N2 A/Hiroshima/52/05 (influenza A virus); experiment: cell-based or functional assay
[10] = molecular target: HA of H6N1 A/Eurasian Wigeon/MPG1884/09 (influenza A virus); experiment: cell-based or functional assay
[11] = molecular target: T1, HA of H7N7 A/Netherlands/219/2003 (influenza A virus, UniProt P36346 19-563); experiment: cell-based or functional assay
[12] = molecular target: HA of H3N2 A/Johannesburg/33/94 (influenza A virus); experiment: cell-based or functional assay
[13] = molecular target: HA of H1N1 A/HK/54/98 (influenza A virus); experiment: cell-based or functional assay
[14] = molecular target: HA of H7N7 A/PR8 H7N7-NY (influenza A virus); experiment: cell-based or functional assay
[15] = molecular target: HA of H10N8 A/Jiangxi/346/2013 (influenza A virus); experiment: cell-based or functional assay
[16] = molecular target: HA of H6N8 A/Eurasian Wigeon/MPD411/07 (influenza A virus); experiment: cell-based or functional assay
[17] = molecular target: HA of H8N4 A/Eurasian Wigeon/MPH571/08 (influenza A virus); experiment: cell-based or functional assay
[18] = molecular target: HA of H4 A/WF/HK/MPA892/06 (influenza A virus); experiment: cell-based or functional assay
[19] = molecular target: HA of H1N1 A/Christchurch/16/10 (influenza A virus); experiment: cell-based or functional assay
[20] = molecular target: HA of H10N3 A/Common Teal/MPH11/08 (influenza A virus); experiment: cell-based or functional assay
[21] = molecular target: HA of H8N2 A/Env/MPJ1258/09 (influenza A virus); experiment: cell-based or functional assay
[22] = molecular target: HA of H10N9 A/Northern Shoveler/MPE2531/08 (influenza A virus); experiment: cell-based or functional assay
[23] = molecular target: HA of H14N5 A/Mallard/Astrakhan/263/1982 (influenza A virus); experiment: cell-based or functional assay
[24] = molecular target: HA of H3N2 A/Fukui/45/04 (influenza A virus); experiment: cell-based or functional assay
[25] = molecular target: HA of H1N1 A/Solomon Islands/3/2006 (IVR 145) (influenza A virus); experiment: cell-based or functional assay
[26] = molecular target: HA of H5N1 A/PR8 H5N1 HK97 (influenza A virus); experiment: cell-based or functional assay
[27] = molecular target: HA of H5N2 A/Eurasian Wigeon/HK/MPF333/07 (influenza A virus); experiment: cell-based or functional assay
[28] = molecular target: HA of H9N2 A/Ck/HK/SSP176/09 (influenza A virus); experiment: cell-based or functional assay
[29] = molecular target: HA of H4N1 A/Northern Pintail/MPB1368/06 (influenza A virus); experiment: cell-based or functional assay
[30] = molecular target: HA of H3N2 A/HK/1174/99 (influenza A virus); experiment: cell-based or functional assay
[31] = molecular target: HA of H12N5 A/Env/MPK659/09 (influenza A virus); experiment: cell-based or functional assay
[32] = molecular target: HA of H3N2 A/Panama/2007/99 (influenza A virus); experiment: cell-based or functional assay
[33] = molecular target: HA of H1N2 A/Env/HK/MPU3156/05 (influenza A virus); experiment: cell-based or functional assay
[34] = molecular target: HA of H3N2 A/Aichi/2/68 (influenza A virus, UniProt P03437 17-566); experiment: cell-based or functional assay
[35] = molecular target: HA of H3N2 A/Victoria/210/09 (influenza A virus); experiment: cell-based or functional assay
[36] = molecular target: HA of H5N1 A/Indonesia/5/05 (influenza A virus); experiment: cell-based or functional assay
[37] = molecular target: HA of H9N2 A/Great Cormorant/MP2934/04 (influenza A virus); experiment: cell-based or functional assay
[38] = molecular target: HA of H7N9 A/Shanghai/2/13 (influenza A virus); experiment: cell-based or functional assay
[39] = molecular target: HA of H10N7 A/Chick/Germany/N/49 (influenza A virus); experiment: cell-based or functional assay
[40] = molecular target: HA of H3N2 A/Perth/16/09 (influenza A virus); experiment: cell-based or functional assay
[41] = molecular target: HA of H1N1 A/WSN/33 (influenza A virus, UniProt P03454 18-565); experiment: cell-based or functional assay
[42] = molecular target: HA of H3N2 A/HK/1/68-MA (influenza A virus); experiment: cell-based or functional assay
[43] = molecular target: HA of H7N7 A/Northern Shoveler/MPF518/08 (influenza A virus); experiment: cell-based or functional assay
[44] = molecular target: HA of H6N1 A/Taiwan/2/2013 (influenza A virus); experiment: cell-based or functional assay
[45] = molecular target: HA of H7N9 A/Anhui/1/13 (influenza A virus); experiment: cell-based or functional assay
[46] = molecular target: HA of H2N2 A/AnnArbor/23/57 (influenza A virus); experiment: cell-based or functional assay
[47] = molecular target: HA of H9N2 A/HK/466419/09 (influenza A virus); experiment: cell-based or functional assay
[48] = molecular target: T2, HA of H3N2 A/HK/1/68 (influenza A virus, UniProt Q91MA7 17-530); experiment: cell-based or functional assay
[49] = molecular target: HA of H2N2 A/Env/HK/MPU3156/05 (influenza A virus); experiment: cell-based or functional assay
[50] = molecular target: T2, HA of H3N2 A/HK/1/68; experiment: BLI steady state
[51] = molecular target: T1, HA of H7N7 A/Netherlands/219/2003; experiment: AlphaLISA competition vs CR9114

B1: SD1036 (VHH)
VHH: EVQLVESGGGLVQAGGSLKLSCAASGRTYAMGWFRQAPGKEREFVAHINALGTRTYYSDSVKGRFTISRDNAKNTEYLEMNNLKPEDTAVYYCTAQGQWRAAPVAVAAEYEFWGQGTQVTVSS
notes: llama sdAb
- VNA titer [1]: 101 nM
- VNA titer [2]: > 1000 nM
- VNA titer [3]: 18.3 nM
- VNA titer [4]: > 1000 nM
- VNA titer [5]: > 1000 nM
- VNA titer [6]: > 1000 nM
- VNA titer [7]: > 1000 nM
- VNA titer [8]: 44.5 nM
- VNA titer [9]: > 1000 nM
- VNA titer [10]: > 1000 nM
- VNA titer [11]: 28.9 nM
- VNA titer [12]: 601 nM
- VNA titer [13]: > 1000 nM
- VNA titer [14]: 8.8 nM
- VNA titer [15]: 83.9 nM
- VNA titer [16]: > 1000 nM
- VNA titer [17]: > 1000 nM
- VNA titer [18]: 40.4 nM
- VNA titer [19]: > 1000 nM
- VNA titer [20]: 28.9 nM
- VNA titer [21]: > 1000 nM
- VNA titer [22]: 19.9 nM
- VNA titer [23]: 16.2 nM
- VNA titer [24]: > 1000 nM
- VNA titer [25]: > 1000 nM
- VNA titer [26]: > 1000 nM
- VNA titer [27]: > 1000 nM
- VNA titer [28]: > 1000 nM
- VNA titer [29]: 80.7 nM
- VNA titer [30]: > 1000 nM
- VNA titer [31]: > 1000 nM
- VNA titer [32]: > 1000 nM
- VNA titer [33]: > 1000 nM
- VNA titer [34]: 6.5 nM
- VNA titer [35]: 540 nM
- VNA titer [36]: > 1000 nM
- VNA titer [37]: 677 nM
- VNA titer [38]: 33 nM
- VNA titer [39]: 22.2 nM
- VNA titer [40]: 76.4 nM
- VNA titer [41]: > 1000 nM
- VNA titer [42]: 73.2 nM
- VNA titer [43]: 44.7 nM
- VNA titer [44]: > 1000 nM
- VNA titer [45]: 65.9 nM
- VNA titer [46]: > 1000 nM
- VNA titer [47]: > 1000 nM
- VNA titer [48]: 115 nM
- VNA titer [49]: > 1000 nM
- Kd [50]: 2 nM
- pIC50 [51]: 9.3

Source: US20190359693A1 (Janssen / Centocor, published 2019)
